Experimental findings from publication PMC5932034, “Structures of chaperone-substrate complexes docked onto the export gate in a type III secretion system” (Nature Communications, 2018) are described below.

What all share (conditions): both partners purified
Test [1] addresses T1, cytoplasmic domain of Salmonella enterica serovar Typhimurium FlhA (FlhA^C) (Salmonella enterica serovar Typhimurium …, UniProt P40729 362-692).
T1 construct: FlhA, globular cytoplasmic domain, Salmonella enterica serovar Typhimurium ST313, residues 362-692 (36.4 kDa); also called export gate platform protein; source: E. coli BL21(DE3), purified (Ni Sepharose, TEV tag removal, Superdex 75)
T1 sequence: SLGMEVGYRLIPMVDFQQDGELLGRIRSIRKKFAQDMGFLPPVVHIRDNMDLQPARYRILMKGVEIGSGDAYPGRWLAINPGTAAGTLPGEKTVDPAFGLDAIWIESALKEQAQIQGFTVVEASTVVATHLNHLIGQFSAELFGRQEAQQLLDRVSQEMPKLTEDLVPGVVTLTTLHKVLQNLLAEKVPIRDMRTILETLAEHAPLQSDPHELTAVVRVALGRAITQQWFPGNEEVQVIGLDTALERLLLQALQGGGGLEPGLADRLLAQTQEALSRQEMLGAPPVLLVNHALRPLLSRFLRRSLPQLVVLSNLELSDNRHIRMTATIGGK
Description: NMR titration; unlabelled partner added to isotopically labelled FlhA^C (and unlabelled FlhA^C to labelled chaperone–substrate complex); 25 °C; 50 mM NaPi pH 6.8, 300 mM NaCl, 0.05% NaN3; typically 0.3 mM labelled protein.

Test [2] addresses T1, cytoplasmic domain of Salmonella …. Description: ITC; FlhA^C and variants (0.1–0.2 mM) in the cell, FliT-FliD, FliS-FliC and variants (1.0–2.0 mM) in the syringe; 25 °C; 50 mM NaPi pH 6.8, 300 mM NaCl, 0.05% NaN3; one-site binding model. (Isothermal titration calorimetry measures the heat released or taken up as one component is titrated into another.)
The target of test [3] is T2, FliS (UniProt P26609 1-135).
T2 construct: FliS, flagellar chaperone of flagellin FliC; Used free in the NMR titration; in the crystal structure it stands as the FliS part of the fused chain m10; also called flagellar chaperone FliS; substrate-free FliS; source: E. coli BL21(DE3), purified (Ni Sepharose, TEV tag removal, Superdex 75)
T2 sequence: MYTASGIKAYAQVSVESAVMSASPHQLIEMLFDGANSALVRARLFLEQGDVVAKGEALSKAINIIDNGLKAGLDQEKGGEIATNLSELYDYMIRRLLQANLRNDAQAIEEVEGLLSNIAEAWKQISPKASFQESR
Description: crystal structure; ternary complexes of FlhA^C with the fused chaperone–substrate constructs; proteins at 10 g/L.

Test [4] addresses T3, FliT (Salmonella enterica serovar Typhimurium …, UniProt P0A1N2 1-122).
T3 construct: FliT, flagellar chaperone of FliD, Salmonella enterica serovar Typhimurium ST313; Used free in the NMR titration; in the structures it stands as the FliT part of the fused chain m9; also called flagellar chaperone FliT; substrate-free FliT; source: E. coli BL21(DE3), purified (Ni Sepharose, TEV tag removal, Superdex 75)
T3 sequence: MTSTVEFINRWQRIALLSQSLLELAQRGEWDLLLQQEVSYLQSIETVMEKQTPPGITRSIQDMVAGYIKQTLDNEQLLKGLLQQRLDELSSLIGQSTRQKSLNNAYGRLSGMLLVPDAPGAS
The description is as above.

B1: FlgN (natural protein)
chain: MTRLSEILDQMTTVLNDLKTVMDAEQQQLSVGQINGSQLQRITEEKSSLLATLDYLEQQRRLEQNAQRSANDDIAERWQAITEKTQHLRDLNQHNGWLLEGQIERNQQALEVLKPHQEPTLYGADGQTSVSHRGGKKISI
notes: FlgN, chaperone of FlgK and FlgL, Salmonella enterica serovar Typhimurium ST313; also called chaperone FlgN; FlgN without substrate; source: E. coli BL21(DE3), purified (Ni Sepharose, TEV tag removal, Superdex 75)
For the molecule B1, the binding result in test [1] was “binds”.

B2: FliS−FliC chaperone–substrate complex (non-fused) (complex)
chain 1: MYTASGIKAYAQVSVESAVMSASPHQLIEMLFDGANSALVRARLFLEQGDVVAKGEALSKAINIIDNGLKAGLDQEKGGEIATNLSELYDYMIRRLLQANLRNDAQAIEEVEGLLSNIAEAWKQISPKASFQESR
chain 2: […]
notes: FliS; FliC, flagellin; Complex formed beforehand and added to FlhA^C; source: E. coli BL21(DE3), purified (Ni Sepharose, TEV tag removal, Superdex 75)
By Kd is commonly meant the constant that tells how readily two partners part at equilibrium. Low readings indicate tighter binding, high ones weaker binding. Turning to B2, the Kd in test [2] was ~8 µM.

B3: FliC^C (FliC residues 454–495) (domain or fragment)
chain: IEDSDYATEVSNMSRAQILQQAGTSVLAQANQVPQNVLSLLR
notes: FliC^C: flagellin FliC residues 454-495;; source: E. coli BL21(DE3), purified; stands as a part of the fused chain m10
B3: the binding result in test [3] is listed as “binds”.

B4: FliD^C (last 40 C-terminal residues of FliD) (domain or fragment)
chain: SIDETVARYKAQFTQLDTMMSKLNNTSSYLTQQFTAMNKS
notes: source: E. coli BL21(DE3), purified; stands as a part of the fused chain m9
For the molecule B4, the binding result in test [4] is reported as “binds”.
